According to article PMC8162731:

Test system: CC(C)(O)[C@@H](O)C(=O)O
Assay: purified protein
Type: biochemical, Synechocystis sp. PCC 6803
Conditions: aerobic

Row | Substance | Km (as-purified enzyme 0.05 μM, pH 8.0, 50 °C) [µM] | Km (as-purified enzyme) [µM]
1 | SnDHAD (Synechocystis sp. PCC 6803 substr. Kazusa) | 136.3 ± 9.0 | 
2 | SnDHAD (Synechocystis sp. PCC 6803 substr. Kazusa; Y477H) |  | 108.9 ± 10.7
